Experimental data: patent US9228015B2, “Nogo receptor antagonists and methods of increasing neurite outgrowth” (Biogen Idec MA Inc., priority 2006, dated 2016)
“Also recorded” adds a separate entry of the source.

Columns and labels:
[1] = molecular target: T1, NgR3 (Homo sapiens, UniProt Q86UN2); experiment: Antibody binding specificity: NgR3
T1 sequence (Q86UN2 with tags, fused parts or gaps V54E/V59I/G67T/L68F/P71Q/Y90F/H92A/S94N/V144I/P190Q/T192I/R221H/S234T/E239D/G245V/P256A/Q271R/V283A/S284T/G286E/H289Q/A298V/A308V/T321S/S331P/P332S/P335A/T336S/S338D/P345H/R346P/H349S/INS350SGYK/P352A/N358S/P359H/A368V/G369S/A370S/Q373E/A374L/P375T/P378Q): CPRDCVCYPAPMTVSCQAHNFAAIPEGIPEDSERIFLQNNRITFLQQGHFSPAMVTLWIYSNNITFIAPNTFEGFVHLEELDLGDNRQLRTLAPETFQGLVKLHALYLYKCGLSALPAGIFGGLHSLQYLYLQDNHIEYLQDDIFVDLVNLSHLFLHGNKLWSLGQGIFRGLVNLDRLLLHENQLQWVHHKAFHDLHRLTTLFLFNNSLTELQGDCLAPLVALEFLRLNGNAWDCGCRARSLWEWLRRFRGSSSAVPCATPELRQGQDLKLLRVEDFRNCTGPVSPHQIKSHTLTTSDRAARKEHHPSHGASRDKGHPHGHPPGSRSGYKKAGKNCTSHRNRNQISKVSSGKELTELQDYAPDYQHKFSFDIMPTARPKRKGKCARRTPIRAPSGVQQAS

[2] = molecular target: T2, human NgR2 (Homo sapiens, UniProt Q86UN3); experiment: Antibody binding specificity: human Nogo receptor-2
T2 sequence (Q86UN3 47-390): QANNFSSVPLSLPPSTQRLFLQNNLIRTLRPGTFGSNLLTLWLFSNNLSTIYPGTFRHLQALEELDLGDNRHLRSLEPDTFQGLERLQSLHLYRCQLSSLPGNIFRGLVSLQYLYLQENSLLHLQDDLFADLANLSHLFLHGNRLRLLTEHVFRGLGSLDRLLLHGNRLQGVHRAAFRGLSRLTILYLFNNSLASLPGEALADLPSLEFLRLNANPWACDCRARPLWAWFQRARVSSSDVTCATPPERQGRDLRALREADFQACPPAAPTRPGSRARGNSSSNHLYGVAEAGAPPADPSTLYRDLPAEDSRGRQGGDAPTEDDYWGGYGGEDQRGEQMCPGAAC

[3] = molecular target: T3, rat NgR1 (Rattus norvegicus, UniProt Q99M75); experiment: Antibody binding specificity: rat Nogo receptor-1
T3 sequence (Q99M75 27-310): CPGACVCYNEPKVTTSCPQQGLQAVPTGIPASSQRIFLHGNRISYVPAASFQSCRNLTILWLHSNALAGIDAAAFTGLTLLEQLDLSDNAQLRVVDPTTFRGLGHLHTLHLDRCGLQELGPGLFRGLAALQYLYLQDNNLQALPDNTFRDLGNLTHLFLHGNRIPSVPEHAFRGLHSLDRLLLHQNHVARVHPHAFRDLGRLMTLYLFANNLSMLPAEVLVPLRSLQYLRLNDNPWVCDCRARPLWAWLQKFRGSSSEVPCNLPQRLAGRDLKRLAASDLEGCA

[4] = molecular target: T4, Nogo66 binding to sNogoR344-Fc (rat Nogo receptor-1 residues 26-344) (Rattus norvegicus, UniProt Q99M75, A303T/C287S/C43R/E284G/T53A); experiment: SPA bead assay: 125I-Nogo66 binding to immobilized sNogoR344-Fc, inhibition by mAb; conditions: 125I-Nogo66 binding to sNogoR344-Fc
T4 construct: amino acid residues 26-344 of rat Nogo receptor-1; made in house; CHO (DG44) is described only for sNogoR310-Fc
T4 sequence (Q99M75 26-344 C43R/T53A/E284G/C287S/A303T): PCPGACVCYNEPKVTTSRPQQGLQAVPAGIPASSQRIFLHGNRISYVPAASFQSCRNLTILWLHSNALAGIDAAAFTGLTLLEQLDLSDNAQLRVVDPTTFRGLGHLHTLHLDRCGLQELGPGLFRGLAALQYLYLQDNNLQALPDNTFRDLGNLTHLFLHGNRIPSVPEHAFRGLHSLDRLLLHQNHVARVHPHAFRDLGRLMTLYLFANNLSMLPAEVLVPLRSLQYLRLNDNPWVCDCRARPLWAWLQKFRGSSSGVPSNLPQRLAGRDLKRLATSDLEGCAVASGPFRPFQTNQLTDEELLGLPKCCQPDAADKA
Description: 0.5 μg of a soluble Nogo receptor-1 fusion protein comprising amino acid residues 26-344 of rat Nogo receptor-1 and the hinge and Fc region of the rat IgG1 molecule (sNogoR344-Fc) produced as described below was immobilized on […] of protein-A- or wheatgerm agglutinin-conjugated SPA beads (Amersham Pharmacia Biotech) for 2 hours at 25° C. SPA beads coupled with Fc-sNogoR-1, anti-Nogo receptor-1 mAb and 1 μl ^125I-Nogo66 (Amersham, 2000 Ci/mmol, 1 nM) in […] of the HEPES-buffered incubation medium (10 mM HEPES, pH 7.4, 0.1% bovine serum albumin, 0.1% ovalbumin, 2 mM MgCl2, 2 mM CaCl2 and protease inhibitors) was added to each sample well. After 16 hours, radioactivity was measured in quadruplicate samples using a TopCount® (Packard). IC50 values were calculated from a curve-fit analysis (FIG. 3) (PRISM, GraphPad Software, NJ). In some experiments, we also used AP-ligand conjugates (e.g. AP-Nogo66) and detected binding by monitoring alkaline phosphatase activity. We also assayed the ability of the mAbs to block binding of the ligands MAG-Fc and AP-OM-gp to Nogo receptor-1.

[5] = molecular target: T5, panel of Nogo receptor-1 polypeptides (sNogoR310-Fc, sNogoR344-Fc, p-617, p-618, p-4, p-5) (Rattus norvegicus, UniProt Q99M75); experiment: Antibody specificity ELISA with a panel of Nogo receptor-1 polypeptides; format: binding
T5 construct: made in house
Description: To determine the specificity of the monoclonal and Fab-phage antibodies produced in Examples 1 and 2, we performed an ELISA using a panel of Nogo receptor-1 polypeptides. The panel consisted of sNogoR310-Fc (a fusion protein comprising amino acids 26-310 of rat Nogo receptor-1 and a rat Fc fragment), sNogoR344-Fc (see supra), polypeptide p-617 (SEQ ID NO: 1), polypeptide p-618 (a 19-amino acid polypeptide from the LRR7 region of rat Nogo receptor-1; FIG. 2; SEQ ID NO: 11) and polypeptides p-4 and p-5 (polypeptides from the LRR5 and LRRCT regions of Nogo receptor-1, respectively). Ovalbumin and BSA were used as controls.

[6] = molecular target: T6, human NgR1 (Homo sapiens, UniProt Q9BZR6); experiment: Antibody binding specificity: human Nogo receptor-1
T6 sequence (Q9BZR6 27-447): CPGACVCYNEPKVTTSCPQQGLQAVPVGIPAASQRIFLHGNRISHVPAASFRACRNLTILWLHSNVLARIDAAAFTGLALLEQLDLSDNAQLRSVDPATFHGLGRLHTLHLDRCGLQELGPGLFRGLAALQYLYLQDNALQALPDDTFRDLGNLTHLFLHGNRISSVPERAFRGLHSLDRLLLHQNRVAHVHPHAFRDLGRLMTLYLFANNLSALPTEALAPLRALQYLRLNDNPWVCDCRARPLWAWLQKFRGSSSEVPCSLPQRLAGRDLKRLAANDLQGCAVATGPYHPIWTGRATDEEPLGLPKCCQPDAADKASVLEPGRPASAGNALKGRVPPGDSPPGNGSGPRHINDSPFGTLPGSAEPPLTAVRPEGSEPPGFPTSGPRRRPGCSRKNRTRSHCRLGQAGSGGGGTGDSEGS

B1: 7E11: murine monoclonal anti-Nogo receptor-1 antibody, immunogen rat Nogo receptor-1 residues 110-125, IgG1 kappa, ATCC PTA-4587 (antibody, V domains shown)
VH: VQLQESGAELVMPGASVKMSCKASGYTFTDYWMHWVKQRPGQGLEWIGAIDPSDSYSSYNQNFKGKATLTVDGSSSTAYMQLSSLTSEDSAVYYCARRITEAGAWFAYWGQGTTVT
VL: MKLPVRLLVLMFWIPASSSDVVMTQTPLSLPVSLGDQASISCRSSQSLVHSNGNTYLHWYLQKPGQSPKLLIYKVSNRFSGVPDRFSGSGSGTDFTLKISRVDAEDLGVYFCSQSTHVPFTFGGGTKLEIKRADAAPTVSISHH
modifications: 7E11 heavy chain; 7E11 light chain
notes: murine monoclonal anti-Nogo receptor-1 antibody, immunogen rat Nogo receptor-1 residues 110-125, IgG1 kappa, ATCC PTA-4587
binding to NgR3 [1]: does not bind well | binding to human Nogo receptor-2 [2]: not | binding to rat Nogo receptor-1 [3]: bound; also recorded: binds well | IC50 [4]: 400 nM | binding to polypeptide p-617 (SEQ ID NO: 1) [5]: specifically bound | binding to human Nogo receptor-1 [6]: bound; also recorded: binds well
